Measured values taken from US20070185028A1, “Compositions and methods for treatment of protein misfolding and protein aggregation diseases” (priority 2004, published 2007).

Experiments:
[1] = target: T1, α-synuclein (Homo sapiens, UniProt P37840); assay: α-synuclein fibrillation ThT assay; format: biochemical; details: for change of ThT fluorescence of α-synuclein: concentration increased to 46 μM
T1 construct: purchased rPeptide
Protocol: The effect of the five αB crystallin peptides, ST, DR, HG, LT, and ER on as synuclein fibrillation was measured using the ThT fluorescence assay (FIG. 28). The formation and inhibition of α-synuclein fibrils was qualitatively verified by fluorescence and bright-field microscopy. The concentration of the peptides was varied relative to α-synuclein to establish a concentration curve. In addition, the effect of a control neuropeptide (AT1) with no α-synuclein fibril inhibition activity was measured and compared to the effect of the αB crystallin peptides on α-synuclein fibrillation. The ThT fluorescence of 46 μM α-synuclein alone incubated at 37° C. for 96 hrs, increased from ˜9,500 to ˜16,000 RFU. Addition of 9.2 μM αB crystallin peptides ST, DR, HG, LT, and ER decreased the ThT fluorescence of α-synuclein by 32-100%. When the concentration of the αB crystallin peptides was increased to 46 μM, the ThT fluorescence of α-synuclein decreased with the αB crystallin peptides, DR, HG, LT, and ER, while the ThT fluorescence increased with the ST peptide. […] The negative control peptide AT1 had no effect on α-synuclein fibrillation even at a concentration as high as 460 μM. All five αB crystallin peptides inhibited α-synuclein fibrillation at sub-stoichometric and stoichometric concentrations (9.2 μM and 46 μM).
The Thioflavin T (ThT) fluorescence of 46 μM α-synuclein in the presence of varying concentrations of αB crystallin peptides and controls was measured. […] When the concentration of the peptides was increased to […] (1:1::peptide:α-synuclein), the αB crystallin peptides DR, HG, LT and ER decreased the ThT fluorescence by 51-100%, while the ST peptide had no effect on ThT fluorescence. When the concentration of the peptides was increased further to […] (10:1::peptide:α-synuclein), the five αB crystallin peptides decreased the ThT fluorescence by 40-100%. […] The formation and inhibition of β2-microglobulin fibrils was verified microscopically.
α-synuclein fibrillation ThT assays were performed as described previously. Zhu et al., J Biol Chem 279:26846-57, 2004; Dedmon et al., J Biol Chem 280:14733-40, 2005. Peptides were dissolved to 2 mM in 0.25% DMSO and diluted accordingly, while α-synuclein was dissolved in 20 mM Tris-Cl, 100 mM NaCl, pH 7.4. For the 5:1::peptide: α-synuclein assay, 5 μL of 700 μM peptide or APS was mixed with 5 μL of 140 μM α-synuclein, 17 μt of 20 mM Tris-Cl, 100 mM NaCl, pH 7.4 and 3 μL of 1 mM ThT. For the 1:1::peptide:α-synuclein assay, 5 μL of 140 μM peptide was mixed with 5 μL of 140 μM α-synuclein, 17 μl of 20 mM Tris-Cl, 100 mM NaCl, pH 7.4 and 3 μL of 1 mM ThT. For the 1:5::peptide:α-synuclein assay, 5 μL of 28 μM peptide was mixed with 5 μL of 140 μM α-synuclein, and […] of 20 mM Tris-Cl, 100 mM NaCl, pH 7.4 and 3/L of 1 mM ThT. ThT fluorescence was measured using a Perkin Elmer Victor^3 V plate reader. Assays were performed in 384-well fluorescence plates in duplicates or triplicates. Samples were incubated at 37° C. for a total of 96 hours. ThT fluorescence was measured at 0, 24, 48, and 96 hours. The effect of the peptides and APS was calculated as percentage fibril formation relative to α-synuclein alone (100%) at the end of 96 hours.

[2] = test system: bovine βH crystallin; assay: αB crystallin protein pin array with βH crystallin; format: binding; details: unheated βH crystallin, 23° C.; similar maxima pre-heated 45° C.
Description: Synthesis of Pins, binding and detection of peptides binding to ligand proteins. The αB crystallin protein pin array was used to measure the interaction between peptides and chaperone target proteins including bovine βH crystallin, human γD crystallin, equine alcohol dehydrogenase (ADH) and porcine citrate synthase (CS) as described (FIG. 12). Ghosh and Clark, Protein Sci 14: 684-95, 2005.
Refer to the methods section for detailed protocols. The absorbance corresponding to the blue coloration in each well was measured at λ=450 nm and plotted against the amino acid sequence of the corresponding peptide in that well (FIGS. 13 and 14). Wells containing peptides that have strong interactions with target proteins are dark blue and wells containing peptides that have weak or no interaction with target proteins are light blue or clear.
The purity of the target proteins used in the pin array assays, bovine βH crystallin, human γD crystallin, equine alcohol dehydrogenase (ADH) and porcine citrate synthase (CS) were determined to be >90% by SDS-PAGE. In addition, primary antibodies for each target protein were specific to that target protein and consequently contaminating proteins that may bind to the peptides will not be detected. Eighty-four sequential and overlapping peptide fragments corresponding to residues 1-175 of human αB crystallin were synthesized employing a simultaneous peptide synthesis strategy developed by Geysen, called Multipin Peptide Synthesis (Mimotopes, San Diego, Calif.). Geysen, Southeast Asian J Trop Med Public Health 21: 523-33, 1990; Chin et al., J Org Chem 62: 538-539, 1997. Peptides were immobilized on derivatized polyethylene pins arranged in a microtiter ELISA plate format. Each peptide was eight amino acids in length and consecutive peptides were offset by two amino acids. All peptides were bound covalently to the surface of the plastic pins. The first peptide was 1MDIAIHHP8 and the last peptide was 168PAVTAAPK175 for human αB crystallin.
Ghosh and Clark, Protein Sci 14: 684-95, 2005. […] The intensity of the blue color in the wells was measured at 450 nm using an ELISA plate-reader (BioTek, Winooski, Vt.). The intensity of the blue color (plotted on the X-axis) was a measure of the interaction between αB crystallin peptides (plotted on the Y-axis) and target proteins. To measure the effect of temperature on the interactions between interactive peptides and the target proteins, the target proteins were heated in a water-bath at 45° C. for fifteen minutes prior to use. Pin arrays are unable to differentiate between monomers, dimers or oligomers of target proteins that exist in solution. Instead, pin arrays are very sensitive detectors of interactions between individual peptides and the entire population (monomers, dimers or oligomers) of specific target proteins that may exist in solution under specific conditions. Each target protein was assayed two to five times. A single pin array was used for all experiments and no change in interactions was observed after more than thirty repetitions. The last three peptides of the protein pin array, 163REEKPAVT170, 165EKPAVTAA172, 167PAVTAAPK174, correspond to the epitope (163REEKPAVTAAPKK175) recognized by the primary antibody for human αB crystallin. A positive reaction is observed for these three peptides in the absence of human αB crystallin as the ligand due to direct binding of the anti-human αB crystallin antibody to these three peptides. The loss of efficiency for the pin array was measured using this assay. The loss of efficiency for the pin array was determined to be <5% by after more than 30 assays.
Protein pin arrays enabled the identification of interactive sequences necessary for the chaperone activity of human αB crystallin. Interactions between immobilized 8-mer human αB crystallin peptides and unheated and pre-heated βH crystallin, a natural protein constitute of lens cells, were measured as absorbances at λ=450 nm at 23° C. […]

| Sequence | change of ThT fluorescence of α-synuclein [1] | absorbance at 450 nm, interaction with βH crystallin [2] | other results |
| --- | --- | --- | --- |
| DRFSVNLDVKHFS | decreased | – | effect on α-synuclein fibril formation, overall [1]: most effective inhibitor |
| ERTIPITRE | decreased | – | – |
| FSVNLDVK [Peptide 38] | – | Maximum absorbances | – |
| HGKHEERQDE | decreased | – | effect on α-synuclein fibril formation, overall [1]: most effective inhibitor |
| LTITSSLS [Peptide 66] | – | Maximum absorbances | – |
| LTITSSLSSDGV | decreased | – | – |
| STSLSPFYLRPPSFLRAP | increased | – | decrease in ThT fluorescence of α-synuclein ([1]; 16 μM (1:1::peptide:α-synuclein) as printed): no effect |
| WIRRPFFP [Peptide 5] | – | Maximum absorbances | – |
